Source: US20080181886A1 (Genentech, published 2008)

T1: Murine APRIL (mouse, UniProt Q9D777 105-241, limits assumed)
T1 sequence (looked up): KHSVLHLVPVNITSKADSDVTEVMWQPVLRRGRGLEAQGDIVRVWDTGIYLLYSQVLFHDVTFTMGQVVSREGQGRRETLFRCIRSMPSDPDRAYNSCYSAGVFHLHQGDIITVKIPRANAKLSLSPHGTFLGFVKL

T2: TRX-APRIL (mouse, UniProt Q9D777 104-241)
T2 construct: Named only as TRX-APRIL
T2 sequence (looked up): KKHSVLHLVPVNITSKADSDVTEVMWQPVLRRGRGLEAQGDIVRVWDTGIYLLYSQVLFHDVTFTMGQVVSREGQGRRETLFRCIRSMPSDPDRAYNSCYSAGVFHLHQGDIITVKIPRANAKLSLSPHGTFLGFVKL

B1: TACI_d2 (second cysteine-rich domain, CRD2, residues 68-109 of human TACI) (receptor)
chain: GSPWSLSCRKEQGKFYDHLLRDCISCASICGQHPKQCAYFCENKLR
notes: E. coli, cleaved from TRX-His fusion; residue numbers are those of native human TACI (293 aa); also called TACI CRD2

molecular target: T1, Murine APRIL; assay: NNS library, phage display;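 further: ligand versus display occurrence-to-degeneracy ratio and higher means enriched by binding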

Row | Binder | F' APRIL
1 | SLSCRKEQGKAYDHLLRDCISCASICGQHPKQCAYFCENKLR (receptor, phage library variant, format as m9) [TACI_d2 F78A] | 0
2 | SLSCRKEQGKFYDHLLRDCISCASVCGQHPKQCAYFCENKLR (receptor, phage library variant, format as m9) [TACI_d2 I92V] | 6
3 | SLSCRKEQGKFYDHLLRDCISCASTCGQHPKQCAYFCENKLR (receptor, phage library variant, format as m9) [TACI_d2 I92T] | 3
4 | SLSCRKEQGKVYDHLLRDCISCASICGQHPKQCAYFCENKLR (receptor, phage library variant, format as m9) [TACI_d2 F78V] | 1

molecular target: T3, human BAFF (human, UniProt Q9Y275 82-285, limits assumed); assay: NNS library, phage display;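 further: ligand versus display occurrence-to-degeneracy ratio and higher means enriched by binding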
T3 sequence (Q9Y275 82-285 limits assumed): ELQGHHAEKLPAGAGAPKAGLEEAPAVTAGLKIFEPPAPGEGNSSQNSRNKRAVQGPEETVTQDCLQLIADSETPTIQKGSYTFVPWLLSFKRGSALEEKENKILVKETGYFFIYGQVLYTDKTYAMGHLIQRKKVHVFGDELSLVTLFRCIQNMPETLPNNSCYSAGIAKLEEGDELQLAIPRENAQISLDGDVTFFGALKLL

Row | Binder | F' BAFF
5 | SLSCRKEQGKAYDHLLRDCISCASICGQHPKQCAYFCENKLR (receptor, phage library variant, format as m9) [TACI_d2 F78A] | 0
6 | SLSCRKEQGKFYDHLLRDCISCASVCGQHPKQCAYFCENKLR (receptor, phage library variant, format as m9) [TACI_d2 I92V] | 9
7 | SLSCRKEQGKFYDHLLRDCISCASTCGQHPKQCAYFCENKLR (receptor, phage library variant, format as m9) [TACI_d2 I92T] | 7
8 | SLSCRKEQGKVYDHLLRDCISCASICGQHPKQCAYFCENKLR (receptor, phage library variant, format as m9) [TACI_d2 F78V] | 1

molecular target: T1, Murine APRIL; assay: shotgun scan, phage display
Source text: (§1) Phage from each of the libraries described above were subjected to rounds of binding selection against APRIL, BAFF, or anti-tag antibody (3C8:2F4 Genentech, Inc.) immobilized on 96-well Nunc Maxisorp immunoplates (Sidhu, 2001). BSA-coated wells were used to determine non-specific background binding. Phage eluted from each target were propagated in E. coli XL1-Blue in the presence of M13K07 helper phage; amplified phage were used for selection against the same target in the […] round. […] Enrichment was calculated from the ratio of the phage titer eluted from the target-coated wells to the phage titer eluted from the BSA-coated wells. Individual clones from each library and selection target were then grown in a 96-well format in 400 ul of 2YT medium supplemented with carbenicillin and KO7 helper phage. […] Sequences of acceptable quality were translated and aligned. For APRIL-binding, 71, 40, and 54 sequences were analyzed from libraries one, two and three, respectively. For BAFF-binding, 70, 50, and 53 sequences were analyzed for libraries one, two and three, respectively. For the display selection, a minimum of 47 sequences were analyzed for each library. […] F values describe the effect of mutation on target binding, while accounting for differences in display efficiencies, with values >1 representing deleterious mutations and those <1 representing favorable mutations.

Row | Binder | F (APRIL)
9 | SLSCRKEQGKAYDHLLRDCISCASICGQHPKQCAYFCENKLR (receptor, phage library variant, format as m9) [TACI_d2 F78A] | 29
10 | SLSCGKEQGKFYDHLLRDCISCASICGQHPKQCAYFCENKLR (receptor, phage library variant, format as m9) [TACI_d2 R72G] | 0.6
11 | SLSCRKEQGKFYDHLLRDCISCASICGQHPKQCADFCENKLR (receptor, phage library variant, format as m9) [TACI_d2 Y102D] | 0.8
12 | SLSCRKEEGKFYDHLLRDCISCASICGQHPKQCAYFCENKLR (receptor, phage library variant, format as m9) [TACI_d2 Q75E] | 0.7
13 | SLSCPKEQGKFYDHLLRDCISCASICGQHPKQCAYFCENKLR (receptor, phage library variant, format as m9) [TACI_d2 R72P] | 0.7
14 | SLSCRKEQGKFYDHLLRDCISCASICGQHPKQCAYFCENKLA (receptor, phage library variant, format as m9) [TACI_d2 R109A] | 1.5
15 | SLSCRKEQGKFYDHLLRDCISCASICGQHPKECAYFCENKLR (receptor, phage library variant, format as m9) [TACI_d2 Q99E] | 1.6
16 | SLSCRKEQGKFYDHLLRDCISCASVCGQHPKQCAYFCENKLR (receptor, phage library variant, format as m9) [TACI_d2 I92V] | 3.3
17 | SLSCRKEQGKFYDHLLRDCISCASICGQHPKQCAYFCENKLP (receptor, phage library variant, format as m9) [TACI_d2 R109P] | 1.2
18 | SLSCRKEQGKFYDHLLRDCISCASICGQHPKQCAYFCETKLR (receptor, phage library variant, format as m9) [TACI_d2 N106T] | 1.6
19 | SLSCRKEPGKFYDHLLRDCISCASICGQHPKQCAYFCENKLR (receptor, phage library variant, format as m9) [TACI_d2 Q75P] | 1.1
20 | SLSCRKEQGKFYDHLLRDCISCASICGQHPKPCAYFCENKLR (receptor, phage library variant, format as m9) [TACI_d2 Q99P] | 1.5
21 | SLSCRKEQGKFYDHLLRDCISCASICGQHPKQCAAFCENKLR (receptor, phage library variant, format as m9) [TACI_d2 Y102A] | 1.6
22 | SLSCRKEQGKFYDHLLRDCISCASTCGQHPKQCAYFCENKLR (receptor, phage library variant, format as m9) [TACI_d2 I92T] | 6
23 | SLSCAKEQGKFYDHLLRDCISCASICGQHPKQCAYFCENKLR (receptor, phage library variant, format as m9) [TACI_d2 R72A] | 1.1
24 | SLSCRKEAGKFYDHLLRDCISCASICGQHPKQCAYFCENKLR (receptor, phage library variant, format as m9) [TACI_d2 Q75A] | 1.4
25 | SLSCRKEQGKFYDHLLRDCISCASICGQHPKQCAYFCENKLG (receptor, phage library variant, format as m9) [TACI_d2 R109G] | 1.2
26 | SLSCRKEQGKVYDHLLRDCISCASICGQHPKQCAYFCENKLR (receptor, phage library variant, format as m9) [TACI_d2 F78V] | 5.2

molecular target: T3, human BAFF; assay: shotgun scan, phage display
Source text: as §1

Row | Binder | F (BAFF)
27 | SLSCRKEQGKAYDHLLRDCISCASICGQHPKQCAYFCENKLR (receptor, phage library variant, format as m9) [TACI_d2 F78A] | 1.1
28 | SLSCGKEQGKFYDHLLRDCISCASICGQHPKQCAYFCENKLR (receptor, phage library variant, format as m9) [TACI_d2 R72G] | 0.4
29 | SLSCRKEQGKFYDHLLRDCISCASICGQHPKQCADFCENKLR (receptor, phage library variant, format as m9) [TACI_d2 Y102D] | 0.6
30 | SLSCRKEEGKFYDHLLRDCISCASICGQHPKQCAYFCENKLR (receptor, phage library variant, format as m9) [TACI_d2 Q75E] | 0.7
31 | SLSCPKEQGKFYDHLLRDCISCASICGQHPKQCAYFCENKLR (receptor, phage library variant, format as m9) [TACI_d2 R72P] | 0.6
32 | SLSCRKEQGKFYDHLLRDCISCASICGQHPKQCAYFCENKLA (receptor, phage library variant, format as m9) [TACI_d2 R109A] | 0.9
33 | SLSCRKEQGKFYDHLLRDCISCASICGQHPKECAYFCENKLR (receptor, phage library variant, format as m9) [TACI_d2 Q99E] | 0.8
34 | SLSCRKEQGKFYDHLLRDCISCASVCGQHPKQCAYFCENKLR (receptor, phage library variant, format as m9) [TACI_d2 I92V] | 0.5
35 | SLSCRKEQGKFYDHLLRDCISCASICGQHPKQCAYFCENKLP (receptor, phage library variant, format as m9) [TACI_d2 R109P] | 1.2
36 | SLSCRKEQGKFYDHLLRDCISCASICGQHPKQCAYFCETKLR (receptor, phage library variant, format as m9) [TACI_d2 N106T] | 1.2
37 | SLSCRKEPGKFYDHLLRDCISCASICGQHPKQCAYFCENKLR (receptor, phage library variant, format as m9) [TACI_d2 Q75P] | 0.8
38 | SLSCRKEQGKFYDHLLRDCISCASICGQHPKPCAYFCENKLR (receptor, phage library variant, format as m9) [TACI_d2 Q99P] | 1.8
39 | SLSCRKEQGKFYDHLLRDCISCASICGQHPKQCAAFCENKLR (receptor, phage library variant, format as m9) [TACI_d2 Y102A] | 2
40 | SLSCRKEQGKFYDHLLRDCISCASTCGQHPKQCAYFCENKLR (receptor, phage library variant, format as m9) [TACI_d2 I92T] | 0.9
41 | SLSCAKEQGKFYDHLLRDCISCASICGQHPKQCAYFCENKLR (receptor, phage library variant, format as m9) [TACI_d2 R72A] | 0.4
42 | SLSCRKEAGKFYDHLLRDCISCASICGQHPKQCAYFCENKLR (receptor, phage library variant, format as m9) [TACI_d2 Q75A] | 0.9
43 | SLSCRKEQGKFYDHLLRDCISCASICGQHPKQCAYFCENKLG (receptor, phage library variant, format as m9) [TACI_d2 R109G] | 1.2
44 | SLSCRKEQGKVYDHLLRDCISCASICGQHPKQCAYFCENKLR (receptor, phage library variant, format as m9) [TACI_d2 F78V] | 0.8

molecular target: T2, TRX-APRIL; assay: SPR competition: ligand in solution against immobilized BCMA-Fc
Description: (§2) Surface plasmon resonance (SPR) measurements on a BIAcore 3000 instrument (Pharmacia Biosensor) were used to measure binding affinities of receptors to immobilized APRIL and BAFF by competition binding. […] In all experiments flow cell 1 was ethanolamine-blocked and used as the reference cell. Washing with 10 mM HCl regenerated flow cells between sample injections. […] The concentration of ligand that provided a slope of about 1 for the initial on-rate of the observed sensorgrams was selected as the fixed concentration to be used in the competition experiments. In all experiments where BAFE was the ligand, the buffer used was composed of 10 mM HEPES, pH 7.2, 150 mM NaCl, and 0.005% Tween-20. In all experiments where TRX-APRIL was the ligand selected, the buffer was composed of 20 mM Tris-HCl, pH 8.0, 200 mM NaCl, and 0.005% Tween-20. […] A linear fit of the initial on-rate of the observed sensorgrams was used to calculate the binding rate (V). The IC₅₀ values were calculated using a four-parameter curve fit (y=((m1−m4)/(1+(m0/m3)̂m2))+m4) of the initial binding rates for the receptor/control (Vᵢ/Vₒ) as a function of receptor concentration.

Row | Binder | IC50 [nM]
45 | B1 | 6

molecular target: T3, human BAFF; assay: as above
Description: as §2

Row | Binder | IC50 [nM]
46 | B1 | 2
